From the Human Domainome abundance scans (Beltran et al. 2025) come the findings set out here.

± gives the uncertainty stated by the source.

The chains are these.
B1: Protein C-ets-1, residues 55 to 135; numbered along this chain, P14921 (parent)
chain: GFTKEQQRLGIPKDPRQWTETHVRDWVMWAVNEFSLKGVDFQKFCMNGAALCALGKDCFLELAPDFVGDILWEHLEILQKE

Variants of B1 are the subject of the series. Nature of the series: abundance fitness (aPCA) (normalised: wild type 0, dead -1); higher = more abundant; growth selection in yeast, the domain comes from the species named. The note with it: Homo sapiens.
Take GFTKEQQRLGIPKDPRQWTETHVRLWVMWAVNEFSLKGVDFQKFCMNGAALCALGKDCFLELAPDFVGDILWEHLEILQKE: the abundance fitness came out at 0.016 ± 0.022. Under GFTKEQQRLGIPKDPRQWTETHVRMWVMWAVNEFSLKGVDFQKFCMNGAALCALGKDCFLELAPDFVGDILWEHLEILQKE stands -0.061 ± 0.034. GFTKEQQRLGIPKDPRQWTETHVRGWVMWAVNEFSLKGVDFQKFCMNGAALCALGKDCFLELAPDFVGDILWEHLEILQKE: the abundance fitness was -0.038 ± 0.027. As for GFTKEQQRLGIPKDPRQWTETHVRVWVMWAVNEFSLKGVDFQKFCMNGAALCALGKDCFLELAPDFVGDILWEHLEILQKE, the abundance fitness is -0.061 ± 0.026.

For GFTKEQQRLGIPKDPRQWTETHVRAWVMWAVNEFSLKGVDFQKFCMNGAALCALGKDCFLELAPDFVGDILWEHLEILQKE, the abundance fitness came to 0.014 ± 0.027.

Regarding GFTKEQQRLGIPKDPRQWTETHVRRWVMWAVNEFSLKGVDFQKFCMNGAALCALGKDCFLELAPDFVGDILWEHLEILQKE, the abundance fitness is -0.023 ± 0.027.

As to GFTKEQQRLGIPKDPRQWTETHVRFWVMWAVNEFSLKGVDFQKFCMNGAALCALGKDCFLELAPDFVGDILWEHLEILQKE, the abundance fitness was -0.124 ± 0.055. Turning to GFTKEQQRLGIPKDPRQWTETHVRHWVMWAVNEFSLKGVDFQKFCMNGAALCALGKDCFLELAPDFVGDILWEHLEILQKE, the abundance fitness worked out at 0.041 ± 0.052. Under GFTKEQQRLGIPKDPRQWTETHVRQWVMWAVNEFSLKGVDFQKFCMNGAALCALGKDCFLELAPDFVGDILWEHLEILQKE stands -0.003 ± 0.048; under GFTKEQQRLGIPKDPRQWTETHVRDWVCWAVNEFSLKGVDFQKFCMNGAALCALGKDCFLELAPDFVGDILWEHLEILQKE, -0.006 ± 0.054. GFTKEQQRLGIPKDPRQWTETHVRDWVGWAVNEFSLKGVDFQKFCMNGAALCALGKDCFLELAPDFVGDILWEHLEILQKE: the abundance fitness is -0.055 ± 0.028. Under GFTKEQQRLGIPKDPRQWTETHVRDWVFWAVNEFSLKGVDFQKFCMNGAALCALGKDCFLELAPDFVGDILWEHLEILQKE stands -0.088 ± 0.057; under GFTKEQQRLGIPKDPRQWTETHVRDWVIWAVNEFSLKGVDFQKFCMNGAALCALGKDCFLELAPDFVGDILWEHLEILQKE, 0.006 ± 0.073. The same measure for GFTKEQQRLGIPKDPRQWTETHVRDWVAWAVNEFSLKGVDFQKFCMNGAALCALGKDCFLELAPDFVGDILWEHLEILQKE: -0.026 ± 0.033; for GFTKEQQRLGIPKDPRQWTETHVRDWVKWAVNEFSLKGVDFQKFCMNGAALCALGKDCFLELAPDFVGDILWEHLEILQKE: -0.016 ± 0.04; for GFTKEQQRLGIPKDPRQWTETHVRDWVEWAVNEFSLKGVDFQKFCMNGAALCALGKDCFLELAPDFVGDILWEHLEILQKE: 0.005 ± 0.047. The same measure for GFTKEQQRLGIPKDPRQWTETHVRDPVMWAVNEFSLKGVDFQKFCMNGAALCALGKDCFLELAPDFVGDILWEHLEILQKE: -0.861 ± 0.048; for GFTKEQQRLGIPKDPRQWTETHVRDIVMWAVNEFSLKGVDFQKFCMNGAALCALGKDCFLELAPDFVGDILWEHLEILQKE: -1.1 ± 0.15. GFTKEQQRLGIPKDPRQWTETHVRDHVMWAVNEFSLKGVDFQKFCMNGAALCALGKDCFLELAPDFVGDILWEHLEILQKE: the abundance fitness was -0.822 ± 0.089. Under GFTKEQQRLGIPKDPRQWTETHVRDSVMWAVNEFSLKGVDFQKFCMNGAALCALGKDCFLELAPDFVGDILWEHLEILQKE stands -0.968 ± 0.05.

Consider GFTKEQQRLGIPKDPRQWTETHVRDVVMWAVNEFSLKGVDFQKFCMNGAALCALGKDCFLELAPDFVGDILWEHLEILQKE, for which the abundance fitness was -0.863 ± 0.041. The same measure for GFTKEQQRLGIPKDPRQWTETHVRDLVMWAVNEFSLKGVDFQKFCMNGAALCALGKDCFLELAPDFVGDILWEHLEILQKE: -0.966 ± 0.052; for GFTKEQQRLGIPKDPRQWTETHVRDNVMWAVNEFSLKGVDFQKFCMNGAALCALGKDCFLELAPDFVGDILWEHLEILQKE: -0.865 ± 0.096.

Take GFTKEQQRLGIPKDPRQWTETHVRDMVMWAVNEFSLKGVDFQKFCMNGAALCALGKDCFLELAPDFVGDILWEHLEILQKE: the abundance fitness was -0.898 ± 0.062. The same measure for GFTKEQQRLGIPKDPRQWTETHVRDRVMWAVNEFSLKGVDFQKFCMNGAALCALGKDCFLELAPDFVGDILWEHLEILQKE: -0.934 ± 0.04; for GFTKEQQRLGIPKDPRQWTETHVRDTVMWAVNEFSLKGVDFQKFCMNGAALCALGKDCFLELAPDFVGDILWEHLEILQKE: -0.954 ± 0.06. GFTKEQQRLGIPKDPRQWTETHVRDFVMWAVNEFSLKGVDFQKFCMNGAALCALGKDCFLELAPDFVGDILWEHLEILQKE: the abundance fitness was -0.213 ± 0.053.

As for GFTKEQQRLGIPKDPRQWTETHVRDKVMWAVNEFSLKGVDFQKFCMNGAALCALGKDCFLELAPDFVGDILWEHLEILQKE, the abundance fitness was -0.727 ± 0.066. Take GFTKEQQRLGIPKDPRQWTETHVRDDVMWAVNEFSLKGVDFQKFCMNGAALCALGKDCFLELAPDFVGDILWEHLEILQKE: the abundance fitness was -0.668 ± 0.064.

Regarding GFTKEQQRLGIPKDPRQWTETHVRDAVMWAVNEFSLKGVDFQKFCMNGAALCALGKDCFLELAPDFVGDILWEHLEILQKE, the abundance fitness is -0.845 ± 0.041.

Turning to GFTKEQQRLGIPKDPRQWTETHVRDGVMWAVNEFSLKGVDFQKFCMNGAALCALGKDCFLELAPDFVGDILWEHLEILQKE, the abundance fitness was -0.895 ± 0.038. As for GFTKEQQRLGIPKDPRQWTETHVRDCVMWAVNEFSLKGVDFQKFCMNGAALCALGKDCFLELAPDFVGDILWEHLEILQKE, the abundance fitness is -0.662 ± 0.058. In the case of GFTKEQQRLGIPKDPRQWTETHVRDEVMWAVNEFSLKGVDFQKFCMNGAALCALGKDCFLELAPDFVGDILWEHLEILQKE, the abundance fitness was -0.84 ± 0.057.

In the case of GFTKEQQRLGIPKDPRQWTETHVRDYVMWAVNEFSLKGVDFQKFCMNGAALCALGKDCFLELAPDFVGDILWEHLEILQKE, the abundance fitness is -0.281 ± 0.049.
